Bridge positions count the residues as written; N and C are the ends. Square brackets hold non-standard residues; d marks the D form. R8 = C=CCCCCCC[C@@](C)(N)C(=O)O; Cba = N[C@@H](CC1CCC1)C(=O)O; S5 = C=CCCC[C@](C)(N)C(=O)O
How the values were obtained:
MDM2 (In-house, 41 kD) [1] = biological target: T1, MDM2 (In-house, 41 kD) (UniProt Q00987 1-125, limits assumed); experiment: competitive fluorescence polarization, displacement of FAM-labeled linear peptide from MDM2; grade decoded by the scale of Table 4
T1 construct: Construct limits and any tag are unknown; also called HDM2
T1 sequence (Q00987 1-125 limits assumed): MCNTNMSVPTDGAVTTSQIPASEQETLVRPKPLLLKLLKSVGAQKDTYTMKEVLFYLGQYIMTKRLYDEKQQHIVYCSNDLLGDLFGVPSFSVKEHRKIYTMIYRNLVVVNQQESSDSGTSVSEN

MDM2 (In-house, 41 kD) [2] = biological target: MDM2 (In-house, 41 kD) (UniProt Q00987); experiment: as above
Chain of MDM2 (In-house, 41 kD) (UniProt Q00987) (Q00987 1-125 limits assumed): as above

MDMX (In-house, 40 kD) [3] = biological target: T2, MDMX (In-house, 40 kD) (UniProt O15151); experiment: competitive fluorescence polarization, displacement of FAM-labeled linear peptide from MDMX; grade decoded by the scale of Table 4
T2 sequence (looked up): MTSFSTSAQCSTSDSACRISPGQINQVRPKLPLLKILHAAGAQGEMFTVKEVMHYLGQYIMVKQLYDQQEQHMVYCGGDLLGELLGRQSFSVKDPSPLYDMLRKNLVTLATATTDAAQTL

MDMX (In-house, 40 kD) [4] = biological target: T3, MDMX (In-house, 40 kD) (UniProt O15151 1-120, limits assumed); experiment: as above
T3 construct: Construct limits and any tag are unknown; also called MDM4
T3 sequence (looked up): T2 sequence (looked up)

MDMX (In-house, 40 kD) [5] = biological target: T4, MDMX (In-house, 40 kD) (UniProt O15151 1-120, limits assumed); experiment: competitive fluorescence polarization vs FAM-labeled linear peptide; column Ki (MDMX); grade means >1000 nM
T4 construct: also called MDM4
T4 sequence (looked up): T2 sequence (looked up)

MDMX (In-house, 40 kD) [6] = biological target: T4, MDMX (In-house, 40 kD); experiment: competitive fluorescence polarization vs FAM-labeled linear peptide; column IC50 (MDMX); grade means >1000 nM

B1: SP595, Ac-LTF$r8EYWAQCba$S-NH2 (peptide)
peptide: LTFAEYWAQAAS
modifications: not fully specified; N-terminal acetyl; $r8 at 4 crosslinked by all-carbon olefin staple to $ at 11; Cba (cyclobutyl alanine) at 10; C-terminal amide
notes: stapled peptidomimetic macrocycle
Question: How did the Ki (MDM2 (In-house, 41 kD) [1]) turn out when B1 was run?
Answer: Its Ki is over 1000 nM.

B2: SP609, Ac-LTF$r8EYWAAibL$AAAAAa-NH2 (peptide)
peptide: LTFAEYWAXLAAAAAAA
modifications: not fully specified; N-terminal acetyl; $r8 at 4 crosslinked by all-carbon olefin staple to $ at 11; Aib (2-aminoisobutyric acid) at 9; D-Ala (a) at C-terminus; C-terminal amide
notes: as for B1
Question: With B2 as the binder, how does the Ki (MDM2 (In-house, 41 kD) [1]) read?
Answer: The Ki was at most 10 nM.

B3: SP612, Ac-LTF$r8EYWACitL$AAAAAa-NH2 (peptide)
peptide: LTFAEYWAXLAAAAAAA
modifications: not fully specified; N-terminal acetyl; $r8 at 4 crosslinked by all-carbon olefin staple to $ at 11; Cit (citrulline) at 9; D-Ala (a) at C-terminus; C-terminal amide
notes: as for B1
Question: For B3, which Ki (MDM2 (In-house, 41 kD) [1]) is on record?
Answer: Its Ki is at most 10 nM.

B4: SP615, Ac-LTF$r8EpYWAQL$AAAAAa-NH2 (peptide)
peptide: LTFAEYWAQLAAAAAAA
modifications: not fully specified; N-terminal acetyl; $r8 at 4 crosslinked by all-carbon olefin staple to $ at 11; pY at 6 (abbreviation not defined in the filing); D-Ala (a) at C-terminus; C-terminal amide
Question: B4 was tested. Which Ki (MDM2 (In-house, 41 kD) [2]) did it give?
Answer: The Ki was under 10 nM.

Question: What about the Ki (MDMX (In-house, 40 kD) [3]) of the same binder?
Answer: The Ki was under 10 nM.

B5: SP716, Ac-LTF$r8EYWAQCba$AAA-NH2 (iso2) (peptide)
peptide: Ac-LTF[R8]EYWAQ[Cba][S5]AAA-NH2
modifications: staple 4-11; also: single isomer iso2
notes: stapled peptidomimetic macrocycle, isomer iso2
Question: Which results are given for B5?
Answer: Ki (MDMX (In-house, 40 kD) [4]): ≤ 10 nM; Ki (MDM2 (In-house, 41 kD) [1]): ≤ 10 nM

B6: SP250 (peptide)
peptide: ETFAEYWAQAASAA
modifications: not fully specified; N-terminal Pam cap (abbreviation not explained in the filing); $r8 = alpha-Me R8-octenyl-alanine and $ = alpha-Me S5-pentenyl-alanine joined by an all-carbon crosslinker; Cba = cyclobutyl alanine; C-terminal amide (NH2)
notes: also called Pam-ETF$r8EYWAQCba$SAA-NH2
Question: Which results are given for B6?
Answer: Ki (MDMX (In-house, 40 kD) [5]): > 1000 nM; IC50 (MDMX (In-house, 40 kD) [6]): > 1000 nM

B7: SP602, Ac-LTF$r8GlaYWAQL$AAAAAa-NH2 (peptide)
peptide: LTFAEYWAQLAAAAAAA
modifications: not fully specified; N-terminal acetyl; $r8 at 4 crosslinked by all-carbon olefin staple to $ at 11; Gla at 5 (abbreviation not defined in the filing); D-Ala (a) at C-terminus; C-terminal amide
notes: as for B1
Question: Which Ki (MDMX (In-house, 40 kD) [4]) does the source give for B7 here?
Answer: The Ki was at most 10 nM.

Question: What about the Ki (MDM2 (In-house, 41 kD) [1]) of the same binder?
Answer: The Ki was at most 10 nM.

B8: SP611, Ac-LTF$r8EYWANL$AAAAAa-NH2 (peptide)
peptide: LTFAEYWANLAAAAAAA
modifications: not fully specified; N-terminal acetyl; $r8 at 4 crosslinked by all-carbon olefin staple to $ at 11; D-Ala (a) at C-terminus; C-terminal amide
notes: as for B1
Question: Which Ki (MDM2 (In-house, 41 kD) [1]) does the source give for B8 here?
Answer: The Ki was at most 10 nM.

B9: SP600, Ac-LTF$r8QYWAQL$AAAAAa-NH2 (peptide)
peptide: LTFAQYWAQLAAAAAAA
modifications: not fully specified; N-terminal acetyl; $r8 (alpha-Me R8-octenyl-alanine) at 4 crosslinked by all-carbon olefin staple to $ (alpha-Me S5-pentenyl-alanine) at 11; D-Ala (a) at C-terminus; C-terminal amide
notes: as for B1
Question: Which Ki (MDMX (In-house, 40 kD) [4]) does the source give for B9 here?
Answer: The Ki was at most 10 nM.

Question: What about the Ki (MDM2 (In-house, 41 kD) [1]) of the same binder?
Answer: Its Ki is at most 10 nM.

B10: SP603, Ac-LTF$r8F4gYWAQL$AAAAAa-NH2 (peptide)
peptide: LTFAFYWAQLAAAAAAA
modifications: not fully specified; N-terminal acetyl; $r8 at 4 crosslinked by all-carbon olefin staple to $ at 11; F4g at 5 (abbreviation not defined in the filing); D-Ala (a) at C-terminus; C-terminal amide
notes: as for B1
Question: With B10 as the binder, how does the Ki (MDMX (In-house, 40 kD) [4]) read?
Answer: Its Ki is at most 10 nM.

Question: And the Ki (MDM2 (In-house, 41 kD) [1])?
Answer: Its Ki is at most 10 nM.

B11: SP613, Ac-LTF$r8EYWAHL$AAAAAa-NH2 (peptide)
peptide: LTFAEYWAHLAAAAAAA
modifications: not fully specified; N-terminal acetyl; $r8 at 4 crosslinked by all-carbon olefin staple to $ at 11; D-Ala (a) at C-terminus; C-terminal amide
notes: as for B1
Question: How did the Ki (MDM2 (In-house, 41 kD) [1]) turn out when B11 was run?
Answer: The Ki was at most 10 nM.

B12: SP610, Ac-LTF$r8EYWASL$AAAAAa-NH2 (peptide)
peptide: LTFAEYWASLAAAAAAA
modifications: not fully specified; N-terminal acetyl; $r8 at 4 crosslinked by all-carbon olefin staple to $ at 11; D-Ala (a) at C-terminus; C-terminal amide
notes: as for B1
Question: B12 was tested. Which Ki (MDM2 (In-house, 41 kD) [1]) did it give?
Answer: The Ki was at most 10 nM.

B13: SP686, 5-TAMRA-BaLTF$r8EYWAQCba$SAA-NH2 (peptide)
peptide: ALTFAEYWAQAASAA
modifications: not fully specified; N-terminal 5-TAMRA on beta-alanine (Ba); $r8 crosslinked by all-carbon olefin staple to $; Cba (cyclobutyl alanine); C-terminal amide
notes: TAMRA-labeled stapled peptidomimetic macrocycle
Question: With B13 as the binder, how does the Ki (MDM2 (In-house, 41 kD) [1]) read?
Answer: Its Ki is at most 10 nM.

B14: SP433, Ac-LTF$r8EYWCou7QCba$SAA-NH2 (peptide)
peptide: LTFAEYWXQAASAA
modifications: not fully specified; N-terminal acetyl; $r8 at 4 crosslinked by all-carbon olefin staple to $ at 11; Cou7 at 8 (structure shown only as a drawing); Cba (cyclobutyl alanine) at 10; C-terminal amide
notes: as for B1
Question: With B14 as the binder, how does the Ki (MDM2 (In-house, 41 kD) [1]) read?
Answer: The Ki was at most 10 nM.

B15: SP712, Ac-LTF$r8HYWAQCba$SAA-NH2 (iso2) (peptide)
peptide: LTFAHYWAQAASAA
modifications: not fully specified; N-terminal acetyl; $r8 at 4 crosslinked by all-carbon olefin staple to $ at 11; Cba (cyclobutyl alanine) at 10; C-terminal amide; single isomer iso2
notes: as for B5
Question: How did the Ki (MDMX (In-house, 40 kD) [4]) turn out when B15 was run?
Answer: Its Ki is at most 10 nM.

Question: What about the Ki (MDM2 (In-house, 41 kD) [1]) of the same binder?
Answer: The Ki was at most 10 nM.

B16: SP713, Ac-LTF$r8SYWAQCba$SAA-NH2 (iso2) (peptide)
peptide: LTFASYWAQAASAA
modifications: not fully specified; N-terminal acetyl; $r8 at 4 crosslinked by all-carbon olefin staple to $ at 11; Cba (cyclobutyl alanine) at 10; C-terminal amide; single isomer iso2
notes: as for B5
Question: How did the Ki (MDMX (In-house, 40 kD) [4]) turn out when B16 was run?
Answer: The Ki was at most 10 nM.

Question: What about the Ki (MDM2 (In-house, 41 kD) [1]) of the same binder?
Answer: Its Ki is at most 10 nM.

— patent US20200369728A1, “PEPTIDOMIMETIC MACROCYCLES AND USES THEREOF” (Aileron Therapeutics, Inc., priority 2015, published 2020)
